According to patent US20140162285A1, “Methods of Modulating Vesicular Trafficking” (The General Hospital Corporation, priority 2009, published 2014):
Entries after “also recorded” stand apart in the source; their conditions may differ. Values belong to the molecule of their own block, whether it stands above or below them. Square brackets hold non-standard residues; d marks the D form. Ends that are not written are not given here. * marks the point of attachment. Biotin = O=C1N[C@H]2[C@H](CS[C@H]2CCCCC(=O)*)N1; pS = N[C@@H](COP(=O)(O)O)C(=O)O

Legend:
[1] = target: T1, GST-ARNO(wt) (Homo sapiens, UniProt Q99418); assay: a2N-derived peptide pull-down assay with GST-ARNO(wt); format: binding; set-up: key to interaction with ARNO (asterisk mark in Table 1): The interacting peptides are indicated in bold with an asterisk (*); settings: for interaction of a2N-derived peptide with GST-ARNO(wt) in pull-down: Western blot anti-GST, GST-only as control; for interaction with ARNO (asterisk mark in Table 1): biotin-tagged peptides on streptavidin beads
T1 construct: i) 1-400aa, full length ARNO(wt); made in house; host or cells: E. coli BL21(DE3)
T1 sequence (Q99418 1-400): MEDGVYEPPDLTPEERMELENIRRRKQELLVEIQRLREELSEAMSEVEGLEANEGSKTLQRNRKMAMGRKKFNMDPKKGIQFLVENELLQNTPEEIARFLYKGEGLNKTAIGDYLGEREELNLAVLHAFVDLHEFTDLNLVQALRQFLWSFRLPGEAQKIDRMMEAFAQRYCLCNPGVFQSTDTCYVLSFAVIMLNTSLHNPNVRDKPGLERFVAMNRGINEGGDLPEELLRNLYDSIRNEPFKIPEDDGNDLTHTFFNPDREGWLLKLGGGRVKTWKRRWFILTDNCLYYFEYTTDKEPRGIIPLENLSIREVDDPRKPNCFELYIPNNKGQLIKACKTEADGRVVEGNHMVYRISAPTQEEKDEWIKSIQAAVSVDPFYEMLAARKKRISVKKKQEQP
Protocol: FIG. 2A is an image of a Western blot showing the results of an a2N-derived peptide pull-down assay. The indicated a2N-derived peptides were immobilized on streptavidin-beads and incubated with purified recombinant GST-ARNO(wt). Interacting complexes were eluted and analyzed by Western blotting using monoclonal anti-GST antibodies.
FIG. 2B is an image of a Western blot showing the results of a pull-down assay with selected a2N-derived interacting peptides incubated with either GST (negative control) or GST-ARNO(wt). The first two lanes show the patterns obtained when either GST-only (lane 1) or GST-ARNO(wt) (lane 2) were loaded onto the gel.
Peptides were synthesized, purified by HPLC and analyzed by mass spectrometry in the MGH Peptide/Protein Core Facility. All a2N-derived peptides were synthesized with a biotin-tag on the N-terminus for immobilization on streptavidin-agarose beads and with an additional C-terminal cysteine residue for immobilization on beads using sulfhydryl-specific crosslinkers. A peptide corresponding to the PB-domain of ARNO was synthesized containing either a non-phosphorylated or a phosphorylated Ser392 residue. Peptide stock solutions were prepared in DMSO at 5 mM concentration and stored at −20° C. […]

[2] = target: T2, 6His-a2N(wt) (Mus musculus, UniProt P15920); assay: ARNO-derived peptide pull-down with in vitro translated 6His-a2N(wt); format: binding; settings: 7 nmol biotin-tagged peptide on streptavidin-agarose beads
T2 construct: amino acid residues 1-402 of mouse V-ATPase a2-subunit (a2N1-402); made in house; host or cells: cell-free in vitro translation
T2 sequence (P15920 1-402): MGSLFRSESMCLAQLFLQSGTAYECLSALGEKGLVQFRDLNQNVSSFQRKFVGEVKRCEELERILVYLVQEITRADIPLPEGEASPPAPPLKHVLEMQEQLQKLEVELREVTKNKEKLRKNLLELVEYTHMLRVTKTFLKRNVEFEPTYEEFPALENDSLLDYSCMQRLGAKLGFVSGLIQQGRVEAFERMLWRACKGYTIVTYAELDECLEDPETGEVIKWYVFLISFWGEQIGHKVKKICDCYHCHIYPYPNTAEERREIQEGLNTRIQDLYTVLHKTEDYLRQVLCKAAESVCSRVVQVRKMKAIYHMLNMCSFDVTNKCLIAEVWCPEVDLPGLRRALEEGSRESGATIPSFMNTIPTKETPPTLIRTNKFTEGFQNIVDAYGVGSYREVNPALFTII
Protocol: FIGS. 4B-C are images of Western blots showing (4B) the results of peptide pull-down assays for interaction of a2N with Sec7-PH-linker of ARNO and (4C) phosphorylation-dependent interaction of a2N with ARNO-derived peptide corresponding to the PB-domain of ARNO. Corresponding ARNO-derived peptides were immobilized on streptavidin-beads and incubated with in vitro translated recombinant a2N. Interacting complexes were eluted and analyzed by Western blotting using anti-a2N antibodies.
ARNO-derived peptides, equal amounts (7 nmol) of biotin-tagged synthetic peptides were also immobilized on streptavidin-agarose beads followed by incubation with 10 μl of in vitro translated 6His-a2N(wt) recombinant protein. Pull-down experiments and SDS-PAGE analysis were performed as described above and interacting 6His-a2N/ARNO-derived-peptide complexes were analyzed by Western blotting using polyclonal anti-a2N antibody. All experiments were repeated at least three times with similar results.

[3] = target: T3, GST-only (UniProt P08515 1-218 = GST); assay: peptide pull-down: biotinylated peptide on streptavidin-agarose beads, GST-only in solution, Western blot with anti-GST antibody
T3 construct: Control bait/prey in pull-down assays; also called GST (negative control)
T3 sequence (P08515 whole entry): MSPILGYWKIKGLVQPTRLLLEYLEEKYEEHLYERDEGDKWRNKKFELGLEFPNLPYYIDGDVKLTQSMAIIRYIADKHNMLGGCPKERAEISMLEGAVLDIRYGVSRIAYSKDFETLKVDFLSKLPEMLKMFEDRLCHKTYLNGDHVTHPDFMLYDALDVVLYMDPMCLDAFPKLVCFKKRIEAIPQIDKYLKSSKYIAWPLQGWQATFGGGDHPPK
Protocol: FIGS. 5A-C are a set of three images of Western blots showing the identification of interaction motif of a2N that is involved in specific binding with the Sec7 domain of ARNO. 5A, The catalytic Sec7 domain of ARNO interacts with two a2N-derived peptides, a2N-01 and a2N-03, in pull-down experiments. The peptide pull-down assay was performed with six a2N-derived interaction peptides immobilized on streptavidin-beads and incubated with purified recombinant GST-only or GST-Sec7 domain. Interacting complexes were eluted and analyzed by Western blotting using monoclonal anti-GST antibodies as described below. The loading controls for GST-only (lane 1) or GST-Sec7 (lane 2) are shown. 5B, 5C: Peptide a2N-01 specifically interacts with Sec7 but not PH-domain (5B) or PB-domain (5C) of ARNO. The peptide pull-down assay was performed with peptides a2N-01 and a2N-03 immobilized on streptavidin-beads and incubated with purified recombinant GST-PH domain (5B) or GST-PB domain (5C). Interacting complexes were eluted and analyzed by Western blotting using monoclonal anti-GST antibodies. The loading control of GST-PH-domain (5B) or GST-PB-domain (5C) is shown on the left.
These a2N-derived peptides were immobilized by an N-terminal biotin-tag, which ensured the same efficiency and equivalent binding to streptavidin-agarose beads. Simultaneous pull-down experiments with immobilized peptides were performed using highly purified recombinant GST-only or GST-Sec7-6His as described below. […] To remove unbound peptides, beads were collected by centrifugation and washed in 500 μl ice-cold binding buffer. Next, equal amounts (20 pmoles) of highly purified recombinant GST-only or GST-Sec7-6His were added to the beads containing immobilized peptides and incubated for 2 hours at 4° C. in 500 μl of binding buffer. After washing beads four times in ice-cold binding buffer, the interacting complexes were eluted by boiling in SDS-PAGE sample buffer for 10 min at 95° C., resolved by SDS-PAGE and analyzed by Western blotting using monoclonal anti-GST antibody.

[4] = target: T4, purified 6His-a2N (recombinant a2N protein, a2N1-402, expressed in E. coli and refolded) (mouse, UniProt P15920 1-402); assay: SPR (BIAcore T100), a2N immobilised on CM4 chip, ARNO(wt) as analyte, bivalent analyte fit
T4 construct: Immobilised by amine coupling on a CM4 chip for SPR; also called a2N(wt); a2N-His6(wt)
T4 sequence: T2 sequence (P15920 1-402)
Protocol: All reagents, including buffers, sensor chips and the amine coupling kit, were obtained from GE Healthcare. For kinetic analysis of the binding of ARNO(wt) with a2N(wt), purified 6His-a2N (5 μg/ml) in 10 mM sodium acetate (pH 4.0) was immobilized at 80 response units (RU) on a CM4 sensor chip using an amine coupling kit according to the manufacturer's instructions. The same kit was used to perform blank immobilization to create a reference surface on the same chip. Samples of purified GST-ARNO(wt) at concentrations ranging from 0.25-4 μM were injected for 6 min over active and reference surfaces at a flow rate of 30 μl/min in NBS-EP, 1 mM DTT running buffer (10 mM Hepes, pH 7.4, 150 mM NaCl, 3 mM EDTA, 0.05% Surfactant P20, 1 mM DTT). For kinetic analysis of the binding of the ARNO Sec7-domain with a2N-01 peptide, neutravidin (10 μg/ml) in 10 mM sodium acetate (pH 5.0) was immobilized at about 1200 RU on two surfaces of a CM4 sensor chip using an amine coupling kit. Following that, biotinylated a2N-01 peptide (50 RU) and amine-PEG₃-biotin (25 RU) were irreversibly captured by neutravidin to create active and a reference surfaces, respectively. Purified Sec7-6His recombinant protein was injected for 3.5 min over active and reference surfaces at concentrations ranging from 0.05-1 μM and a flow rate of 100 μl/min in NBS-EP, 1 mM DTT running buffer. Dissociation of the complexes was monitored for 10 min, and then the regeneration of the sensor surfaces was performed using 0.05% SDS with 1-min injection in the running buffer at a 20 μl/min flow rate. BIAcore™ T100 Evaluation software was used to calculate the association and dissociation rate constants (kₒₙ and koff) with a 1:1 fitting model. The dissociation constant (KD) was determined from the kₒₙ/koff values. To estimate affinity of interaction the corresponding free energy of binding ΔGbind=RTlnKD was calculated as previously described (Marles et al., Mol Cell 14 (2004) 813-823).
Specific concentration-dependent responses were obtained for both interactions. […]

interaction of ARNO-derived peptide with a2N [2]: completely abolished
Molecule: ARNO375-440^P: phosphorylated version (Ser392) of the ARNO PB-domain peptide, SEQ ID NO:33 (VSVDPFYEMLAARKKRI[pS]VKKKQEQP)

interaction with ARNO (asterisk mark in Table 1) [1]: Bio-YGVGSYREVNPALFTII-Cys *
Molecule: Bio-YGVGSYREVNPALFTII-Cys (YGVGSYREVNPALFTIIC) [a2N-22, AA 386-402 of a2N]
interaction of a2N-derived peptide with GST-ARNO(wt) in pull-down [1]: specific interaction; also recorded: capable of interaction with ARNO

binding result [3]: no binding
Molecule: Biotin-VQFRDLNQNVSSFQRC (also called a2N35-49) [a2N-03]

binding result [3]: no binding
Molecule: Biotin-YGVGSYREVNPALFTIIC [a2N-22]

binding result [3]: no binding
Molecule: Biotin-NMCSFDVTNKCLIAEVWCPC (cysteine pairing not given here, also called a2N313-331) [a2N-18]

binding result [3]: no binding
Molecule: Biotin-ETGEVIKWYVFLISFWC (also called a2N215-230) [a2N-12]

binding result [3]: no binding
Molecule: Biotin-GYTIVTYAELDECLEDPC (cysteine pairing not given here, also called a2N198-214) [a2N-11]

Continued, molecule first:

Molecule: Bio-ETGEVIKWYVFLISFW-Cys (ETGEVIKWYVFLISFWC) [a2N-12, AA 215-230 of a2N]
interaction of a2N-derived peptide with GST-ARNO(wt) in pull-down [1]: specific interaction; also recorded: capable of interaction with ARNO
interaction with ARNO (asterisk mark in Table 1) [1]: Bio-ETGEVIKWYVFLISFW-Cys *

Molecule: Sec7/PH-linker: peptide corresponding to the Sec7/PH-linker region (242-261aa) of ARNO, SEQ ID NO:31 (PFKIPEDDGNDLTHTFFNPD)
interaction of ARNO-derived peptide with a2N [2]: reproducibly observed

Molecule: Bio-KHVLEMQEQLQKLEVELREVTKNKEKLRKNLLELVE-Cys (KHVLEMQEQLQKLEVELREVTKNKEKLRKNLLELVEC) [a2N-06, AA 92-127, predicted CC-domain of a2N]
interaction of a2N-derived peptide with GST-ARNO(wt) in pull-down [1]: did not bind

Molecule: Bio-GYTIVTYAELDECLEDP-Cys (GYTIVTYAELDECLEDPC) [a2N-11, AA 198-214 of a2N]
interaction of a2N-derived peptide with GST-ARNO(wt) in pull-down [1]: specific interaction; also recorded: capable of interaction with ARNO
interaction with ARNO (asterisk mark in Table 1) [1]: Bio-GYTIVTYAELDECLEDP-Cys *

Molecule: Bio-NMCSFDVTNKCLIAEVWCP-Cys (NMCSFDVTNKCLIAEVWCPC) [a2N-18, AA 313-331 of a2N]
interaction of a2N-derived peptide with GST-ARNO(wt) in pull-down [1]: specific interaction; also recorded: capable of interaction with ARNO
interaction with ARNO (asterisk mark in Table 1) [1]: Bio-NMCSFDVTNKCLIAEVWCP-Cys *

B1: GST-ARNO(wt) (other, human, UniProt Q99418 1-400, looked up)
chain: T1 sequence (Q99418 1-400)
notes: range 1-400; Double-tagged construct (N-terminal GST, C-terminal 6xHis); also called full length ARNO(wt); wild-type ARNO; not shown: N-terminal GST-tag from the pGEX6P-1 vector; C-terminal 6xHis-tag
Kd [4]: 313 nM
koff [4]: 0.0015 s⁻¹
kon [4]: 4770 M⁻¹ s⁻¹
